One may read the EC50 as the concentration needed to bring the measured effect to its halfway point. Lower therefore signals a more potent agent. The term Kd denotes the concentration at which binding is half-saturated. Higher therefore signals a looser complex.

Results on two molecules are retold here after paper PMC4622731 (mAbs, 2015).

The target in experiment [1] is cynomolgus IL-1α (Macaca fascicularis) (UniProt P79340).
The target of experiment [2] is cynomolgus IL-1β (Macaca fascicularis) (UniProt P79182).
Experiment [3] addresses human IL-1α (human) (UniProt P01583).
In experiment [4] the target is human IL-1β (human) (UniProt P01584).
The target of experiment [5] is cynomolgus IL-1α (Macaca fascicularis) (UniProt P79340). The source holds these as a separate data set.
For experiment [6], the target named is cynomolgus IL-1β (Macaca fascicularis) (UniProt P79182). This is another data set of the same source.
In experiment [7] the target is human IL-1α (human) (UniProt P01583). The source holds these as a separate data set.
For experiment [8], the target named is human IL-1β (human) (UniProt P01584). The source holds these as a separate data set.
The target of experiment [9] is biotinylated human IL-1α (Homo sapiens) (UniProt P01583). Nature of the experiment: ELISA; mAb or DVD-Ig (2 μg/mL) captured by anti-human Fc antibody coated on the plate; biotinylated human IL-1α or IL-1β titrated 1000 ng/mL to 0.597 pg/mL, 1 hour at 25°C; peroxidase-labeled streptavidin. In general terms: ELISA stands for enzyme-linked immunosorbent assay.
The target in experiment [10] is biotinylated human IL-1β (Homo sapiens) (UniProt P01584). Described as above.
Experiment [11] concerns the target cynomolgus IL-1α (Macaca fascicularis) (UniProt P79340). Put plainly: SPR; Biacore 3000; mAb or DVD-Ig captured by goat anti-human IgG Fc on a CM5 chip; IL-1 10-200 nM flowed at 25 μL/min; HBS-EP (10 mM HEPES pH 7.4, 150 mM NaCl, 3 mM EDTA, 0.005% P20), 25°C; 1:1 Langmuir global fit, KD = koff/kon. In general terms: SPR reads the build-up and loss of mass on a sensor chip optically.

Experiment [12] addresses cynomolgus IL-1β (Macaca fascicularis) (UniProt P79182). The description is as above.
The target of experiment [13] is human IL-1α (human) (UniProt P01583). Described as above.
In experiment [14] the target is human IL-1β (human) (UniProt P01584). Described as above.
The target of experiment [15] is T1, human IL-1β (Homo sapiens, UniProt P01584). Nature of the experiment: cell-based or functional assay.
For experiment [16], the target named is T1, human IL-1β. Put plainly: SPR; Biacore 3000; mAb or DVD-Ig captured by goat anti-human IgG Fc on a CM5 chip; IL-1 10-200 nM flowed at 25 μL/min; HBS-EP (10 mM HEPES pH 7.4, 150 mM NaCl, 3 mM EDTA, 0.005% P20), 25°C; 1:1 Langmuir global fit, KD = koff/kon. The conditions noted are these: both partners purified.

Chain of cynomolgus IL-1β (Macaca fascicularis) (P79182 whole entry): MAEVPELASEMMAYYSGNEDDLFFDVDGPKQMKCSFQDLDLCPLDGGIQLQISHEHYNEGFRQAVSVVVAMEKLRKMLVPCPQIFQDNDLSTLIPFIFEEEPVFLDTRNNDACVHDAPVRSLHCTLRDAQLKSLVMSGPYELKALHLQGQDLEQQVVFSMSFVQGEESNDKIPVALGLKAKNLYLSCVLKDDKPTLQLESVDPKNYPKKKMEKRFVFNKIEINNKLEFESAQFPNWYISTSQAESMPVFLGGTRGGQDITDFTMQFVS
Chain of human IL-1α (human) (P01583 whole entry): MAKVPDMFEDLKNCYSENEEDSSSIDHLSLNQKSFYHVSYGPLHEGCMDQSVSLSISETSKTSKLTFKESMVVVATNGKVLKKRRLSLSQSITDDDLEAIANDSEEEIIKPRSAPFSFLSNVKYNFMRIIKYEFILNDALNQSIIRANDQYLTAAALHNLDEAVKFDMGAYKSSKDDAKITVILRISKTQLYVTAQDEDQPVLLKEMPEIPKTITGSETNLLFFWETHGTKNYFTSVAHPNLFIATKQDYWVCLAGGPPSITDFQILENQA
Chain of human IL-1β (human) (P01584 whole entry): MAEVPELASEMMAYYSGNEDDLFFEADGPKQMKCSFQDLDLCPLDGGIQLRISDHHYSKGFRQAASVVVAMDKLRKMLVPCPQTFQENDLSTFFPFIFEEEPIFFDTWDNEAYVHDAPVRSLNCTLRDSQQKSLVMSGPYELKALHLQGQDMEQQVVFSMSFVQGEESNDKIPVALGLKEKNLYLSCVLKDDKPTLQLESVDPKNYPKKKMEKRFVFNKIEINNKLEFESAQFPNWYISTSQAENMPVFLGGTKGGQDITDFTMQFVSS
Chain of cynomolgus IL-1α (Macaca fascicularis) (P79340 whole entry): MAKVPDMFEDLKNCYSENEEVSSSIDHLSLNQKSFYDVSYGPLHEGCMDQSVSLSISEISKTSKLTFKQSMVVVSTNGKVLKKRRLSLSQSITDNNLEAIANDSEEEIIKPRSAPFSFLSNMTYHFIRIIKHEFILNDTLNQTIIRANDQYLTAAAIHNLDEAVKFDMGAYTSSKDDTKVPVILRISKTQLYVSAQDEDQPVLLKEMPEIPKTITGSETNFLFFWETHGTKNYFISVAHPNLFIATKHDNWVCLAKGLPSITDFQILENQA
T1 sequence (P01584 whole entry): as the sequence (P01584 whole entry) above

ABT-981 (bispecific antibody) yielded a Neutralization potency IC50, MRC-5 cell bioassay: IL-8 release on 3 pM cynomolgus IL-1α in experiment [1] of 955 pM. The same molecule registered a Neutralization potency IC50, MRC-5 cell bioassay: IL-8 release on 3 pM cynomolgus IL-1β in experiment [2] of 8.4 pM. In the experiment with human IL-1α (human) [3], this molecule yielded a Neutralization potency IC50, MRC-5 cell bioassay: IL-8 release on 3 pM human IL-1α of 16.2 pM. In the experiment with human IL-1β (human) [4], this molecule returned a Neutralization potency IC50, MRC-5 cell bioassay: IL-8 release on 3 pM human IL-1β of 16 pM. Further, in experiment [5], the ED50, Average: dose of ABT-981 inhibiting mouse IL-6 induced by 30 ng cynomolgus IL-1α in C57/BL6 mice worked out at 6.5 mg/kg; the ED50, Expt #1: dose of ABT-981 inhibiting mouse IL-6 induced by 30 ng cynomolgus IL-1α in C57/BL6 mice was found to be 5.2 mg/kg; the ED50, Expt #2: dose of ABT-981 inhibiting mouse IL-6 induced by 30 ng cynomolgus IL-1α in C57/BL6 mice is 7.7 mg/kg; the ED80, Average: dose of ABT-981 inhibiting mouse IL-6 induced by 30 ng cynomolgus IL-1α in C57/BL6 mice amounted to 18.2 mg/kg. In experiment [5], this molecule had an ED80, Expt #1: dose of ABT-981 inhibiting mouse IL-6 induced by 30 ng cynomolgus IL-1α in C57/BL6 mice of 16.1 mg/kg and an ED80, Expt #2: dose of ABT-981 inhibiting mouse IL-6 induced by 30 ng cynomolgus IL-1α in C57/BL6 mice of 20.2 mg/kg. In experiment [6], this molecule yielded an ED50, Average: dose of ABT-981 inhibiting mouse IL-6 induced by 30 ng cynomolgus IL-1β in C57/BL6 mice of 0.004 mg/kg; an ED50, Expt #1: dose of ABT-981 inhibiting mouse IL-6 induced by 30 ng cynomolgus IL-1β in C57/BL6 mice of 0.002 mg/kg; an ED50, Expt #2: dose of ABT-981 inhibiting mouse IL-6 induced by 30 ng cynomolgus IL-1β in C57/BL6 mice of 0.006 mg/kg; an ED80, Average: dose of ABT-981 inhibiting mouse IL-6 induced by 30 ng cynomolgus IL-1β in C57/BL6 mice of 0.094 mg/kg. Moreover, in [6], the ED80, Expt #1: dose of ABT-981 inhibiting mouse IL-6 induced by 30 ng cynomolgus IL-1β in C57/BL6 mice is 0.098 mg/kg and the ED80, Expt #2: dose of ABT-981 inhibiting mouse IL-6 induced by 30 ng cynomolgus IL-1β in C57/BL6 mice came out at 0.11 mg/kg. In the experiment with human IL-1α (human) [7], this molecule came in with an ED50, Average: dose of ABT-981 inhibiting mouse IL-6 induced by 30 ng human IL-1α in C57/BL6 mice of 0.005 mg/kg; an ED50, Expt #1: dose of ABT-981 inhibiting mouse IL-6 induced by 30 ng human IL-1α in C57/BL6 mice of 0.007 mg/kg; an ED50, Expt #2: dose of ABT-981 inhibiting mouse IL-6 induced by 30 ng human IL-1α in C57/BL6 mice of 0.002 mg/kg; an ED80, Average: dose of ABT-981 inhibiting mouse IL-6 induced by 30 ng human IL-1α in C57/BL6 mice of 0.104 mg/kg. In the experiment with human IL-1α (human) [7], this molecule displayed an ED80, Expt #1: dose of ABT-981 inhibiting mouse IL-6 induced by 30 ng human IL-1α in C57/BL6 mice of 0.17 mg/kg and an ED80, Expt #2: dose of ABT-981 inhibiting mouse IL-6 induced by 30 ng human IL-1α in C57/BL6 mice of 0.04 mg/kg. In addition, in the experiment with human IL-1β (human) [8], the ED50, Average: dose of ABT-981 inhibiting mouse IL-6 induced by 30 ng human IL-1β in C57/BL6 mice came to 0.016 mg/kg; the ED50, Expt #1: dose of ABT-981 inhibiting mouse IL-6 induced by 30 ng human IL-1β in C57/BL6 mice was 0.02 mg/kg; the ED50, Expt #2: dose of ABT-981 inhibiting mouse IL-6 induced by 30 ng human IL-1β in C57/BL6 mice was found to be 0.012 mg/kg; the ED80, Average: dose of ABT-981 inhibiting mouse IL-6 induced by 30 ng human IL-1β in C57/BL6 mice was 0.28 mg/kg. In the experiment with human IL-1β (human) [8], this molecule gave an ED80, Expt #1: dose of ABT-981 inhibiting mouse IL-6 induced by 30 ng human IL-1β in C57/BL6 mice of 0.27 mg/kg and an ED80, Expt #2: dose of ABT-981 inhibiting mouse IL-6 induced by 30 ng human IL-1β in C57/BL6 mice of 0.32 mg/kg. This molecule had a concentration for a half-maximal effect (EC50) in [9] of 6.4 pM. Besides, in experiment [10], the concentration for a half-maximal effect (EC50) was 7.5 pM. The molecule also returned a Kd in experiment [11] of 411 pM. The molecule also showed a Kd in [12] of 15.3 pM. Moreover, the dissociation constant Kd with human IL-1α (human) [13] was determined as 7.6 pM. The same molecule yielded a Kd in the experiment with human IL-1β (human) [14] of 21 pM.

B1: humanized SK48-E26 mAb (antibody, V domains shown)
VH: EVQLVESGGGVVQPGRSLRLSCSSSGFIFSSYDMSWVRQAPGKGLEWVAYISSGGGGTYYPDTVKGRFTISRDNSKNTLFLQMDSLRPEDTGVYFCARGGVTKGYFDVWGQGTPVTVSS
VL: DIQMTQSPSSLSASVGDRVTITCRASGNIHNYLTWYQQTPGKAPKLLIYNAKTLADGVPSRFSGSGSGTDYTFTISSLQPEDIATYYCQHFWSIPYTFGQGTKLQIT
In the case of B1, the “Neutralization potency IC50, MRC-5 cell bioassay: IL-8 release on 3 pM human IL-1β” value in the experiment with human IL-1β [15] stood at 400 pM. In the experiment with human IL-1β [16], this molecule showed a dissociation constant (Kd) of 242 pM.
